The target in experiment [1] is SecY_(A103C-V353C)EG (E. coli) (UniProt P0AGA2).
Experiment [2] has the same target. This is another data set of the same source.

Sequence of SecA (P10408 whole entry): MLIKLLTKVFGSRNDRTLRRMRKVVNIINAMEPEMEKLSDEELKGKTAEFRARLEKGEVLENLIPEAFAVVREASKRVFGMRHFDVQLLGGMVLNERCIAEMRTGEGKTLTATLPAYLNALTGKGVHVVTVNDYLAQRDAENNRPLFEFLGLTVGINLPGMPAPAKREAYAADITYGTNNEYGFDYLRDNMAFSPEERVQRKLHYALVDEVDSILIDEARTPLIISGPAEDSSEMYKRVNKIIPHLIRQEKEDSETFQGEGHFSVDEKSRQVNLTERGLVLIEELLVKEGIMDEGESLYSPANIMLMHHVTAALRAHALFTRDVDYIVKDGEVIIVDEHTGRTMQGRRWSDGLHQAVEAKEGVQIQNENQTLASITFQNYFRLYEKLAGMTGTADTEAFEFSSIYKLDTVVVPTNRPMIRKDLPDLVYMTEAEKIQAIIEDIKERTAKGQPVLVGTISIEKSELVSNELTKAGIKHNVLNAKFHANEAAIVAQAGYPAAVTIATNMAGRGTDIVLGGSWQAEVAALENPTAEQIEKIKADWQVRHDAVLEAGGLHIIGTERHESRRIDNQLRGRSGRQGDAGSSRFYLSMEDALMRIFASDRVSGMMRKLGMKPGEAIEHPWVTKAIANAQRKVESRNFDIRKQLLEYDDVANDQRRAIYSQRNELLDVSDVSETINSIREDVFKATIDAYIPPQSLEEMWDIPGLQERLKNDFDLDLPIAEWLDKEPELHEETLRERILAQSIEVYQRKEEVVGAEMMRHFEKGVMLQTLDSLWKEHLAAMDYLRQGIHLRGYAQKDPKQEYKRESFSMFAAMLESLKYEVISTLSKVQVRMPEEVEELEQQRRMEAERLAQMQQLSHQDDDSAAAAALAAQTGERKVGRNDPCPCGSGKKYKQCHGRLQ

Turning to “SecA (from UniProt P10408 1-901) (enzyme)”, the smFRET between dyes on SecY C103 and C353 in proteoliposomes: percent of time in the closed state with SecA, no nucleotide (~81% for SecYEG alone) in experiment [1] was above 91%. In experiment [2], this substance had a smFRET between dyes on SecY C103 and C353 in proteoliposomes: balance of open and closed states with 1 µM SecA, no nucleotide, no SS, against SecYEG alone of 2 fold.

The values are drawn from publication PMC10883268.
